Test [1] deals with cynomolgus monkey EGFR ECD (SiNo. Biological, 90285-008B) (cynomolgus monkey). Description: SPR (BIAcore), antibody captured by anti-human IgG Fc, antigen as analyte, 1:1 Langmuir. (In general: Surface plasmon resonance follows binding to a sensor surface in real time, without labels.)
For test [2], the target named is c-Met receptor on human tumor cells (MKN45, NCI-H820, HCC827) (human) (UniProt P08581). Description: cell-based or functional assay.
For test [3], the target named is EGFR on HCC827 cells (EGFR E746-A750 deletion mutation) (human) (UniProt P00533). Briefly: cell-based or functional assay.
For test [4], the target named is c-Met receptor on human tumor cells (MKN45, NCI-H820, HCC827) (human) (UniProt P08581). Briefly: flow cytometry on MKN45 cells, 100 nM control antibody, anti-human kappa LC-FITC (column of OA-5D5). On the technique in general: Flow cytometry measures light scatter and fluorescence of single cells or particles in a stream.
Test [5] has the same target. Description: flow cytometry on MKN45 cells, 100 nM control antibody, anti-human kappa LC-FITC (column of hu8C4).

Sequence of c-Met receptor on human tumor cells (MKN45, NCI-H820, HCC827) (human) (P08581 25-1390): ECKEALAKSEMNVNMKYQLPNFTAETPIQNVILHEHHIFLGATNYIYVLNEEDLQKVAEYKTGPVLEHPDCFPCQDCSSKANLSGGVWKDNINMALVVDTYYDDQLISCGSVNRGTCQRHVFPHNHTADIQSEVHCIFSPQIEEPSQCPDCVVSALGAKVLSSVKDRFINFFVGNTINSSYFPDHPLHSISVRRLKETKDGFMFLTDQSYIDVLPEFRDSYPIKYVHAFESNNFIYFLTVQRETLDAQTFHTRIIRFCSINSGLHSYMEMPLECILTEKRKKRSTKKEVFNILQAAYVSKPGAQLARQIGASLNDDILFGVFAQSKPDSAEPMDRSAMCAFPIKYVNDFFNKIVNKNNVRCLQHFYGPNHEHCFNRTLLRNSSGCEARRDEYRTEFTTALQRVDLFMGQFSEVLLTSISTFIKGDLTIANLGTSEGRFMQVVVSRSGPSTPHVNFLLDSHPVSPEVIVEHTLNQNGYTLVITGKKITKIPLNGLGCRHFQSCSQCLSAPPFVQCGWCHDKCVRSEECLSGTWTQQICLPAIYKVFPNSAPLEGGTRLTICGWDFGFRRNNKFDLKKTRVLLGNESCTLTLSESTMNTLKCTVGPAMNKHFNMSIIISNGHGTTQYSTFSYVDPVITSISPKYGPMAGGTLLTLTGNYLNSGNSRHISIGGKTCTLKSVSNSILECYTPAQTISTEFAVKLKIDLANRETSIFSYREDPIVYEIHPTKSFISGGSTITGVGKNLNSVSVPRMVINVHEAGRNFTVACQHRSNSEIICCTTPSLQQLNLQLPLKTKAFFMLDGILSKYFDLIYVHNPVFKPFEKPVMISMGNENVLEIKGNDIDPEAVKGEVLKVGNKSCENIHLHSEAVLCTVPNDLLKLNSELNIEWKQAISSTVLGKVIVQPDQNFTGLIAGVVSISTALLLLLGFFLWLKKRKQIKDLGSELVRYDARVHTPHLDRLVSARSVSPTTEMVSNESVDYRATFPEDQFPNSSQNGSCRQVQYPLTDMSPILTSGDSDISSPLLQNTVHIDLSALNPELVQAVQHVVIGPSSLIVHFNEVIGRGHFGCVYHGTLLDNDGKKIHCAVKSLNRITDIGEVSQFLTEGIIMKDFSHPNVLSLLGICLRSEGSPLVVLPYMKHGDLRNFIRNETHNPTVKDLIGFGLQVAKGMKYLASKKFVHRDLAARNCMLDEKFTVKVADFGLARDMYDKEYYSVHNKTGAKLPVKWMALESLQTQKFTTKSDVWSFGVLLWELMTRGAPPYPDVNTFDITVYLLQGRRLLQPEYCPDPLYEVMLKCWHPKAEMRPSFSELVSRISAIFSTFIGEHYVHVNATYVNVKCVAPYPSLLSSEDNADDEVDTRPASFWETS

Regarding Vectibix (antibody), the Kd (usually the constant that tells how readily two partners part at equilibrium) in test [1] stood at 0.209 nM.

In the case of “C-EM1 (EM1-MAb, Janssen; control c-Met/EGFR bispecific antibody)”, in test [2], the c-Met on the surface of HCC827 cells after 18 h with 100 nM antibody, Means (geo MFI); human IgG control 5653 was determined as 3660 geo MFI and the decrease of c-Met on the surface of HCC827 cells was found to be 40%. In test [3], this substance came in with an EGFR on the surface of HCC827 cells after 18 h with 100 nM antibody, Means (geo MFI); human IgG control 11494 of 11500 geo MFI.

Take “C-LA480 (LA480, Lilly; control c-Met antibody)”: in test [2], the c-Met on the surface of HCC827 cells after 18 h with 100 nM antibody, Means (geo MFI); human IgG control 5653 was 3270 geo MFI and the decrease of c-Met on the surface of HCC827 cells stood at 40%.

Turning to human IgG antibody (negative control), the FITC MFI [IgG control] (FITC geo-mean (MFI)) in test [4] and in test [5] was 127 throughout.

The values are drawn from patent publication US20200231681A1.
